# From patent US20140087995A1 (published 2014)
# Numbered stars: 1 amine (or outer) side, 2 acyl side, 3 side chain; on linkers, the order of the positions; unused ones are H or OH. Bridge positions count the residues as written; N and C are the ends. Side chains are listed from the residue outwards. Ends that are not written are not given here. * marks the point of attachment. C20 diacid = O=C(O)CCCCCCCCCCCCCCCCCCC(=O)*; γGlu = O=C(O)[C@H](CCC(=O)[*:2])N[*:1]; AEEA = NCCOCCOCC(=O)O
# T1: human calcitonin receptor (human, UniProt P30988 25-474)
# T1 sequence (looked up): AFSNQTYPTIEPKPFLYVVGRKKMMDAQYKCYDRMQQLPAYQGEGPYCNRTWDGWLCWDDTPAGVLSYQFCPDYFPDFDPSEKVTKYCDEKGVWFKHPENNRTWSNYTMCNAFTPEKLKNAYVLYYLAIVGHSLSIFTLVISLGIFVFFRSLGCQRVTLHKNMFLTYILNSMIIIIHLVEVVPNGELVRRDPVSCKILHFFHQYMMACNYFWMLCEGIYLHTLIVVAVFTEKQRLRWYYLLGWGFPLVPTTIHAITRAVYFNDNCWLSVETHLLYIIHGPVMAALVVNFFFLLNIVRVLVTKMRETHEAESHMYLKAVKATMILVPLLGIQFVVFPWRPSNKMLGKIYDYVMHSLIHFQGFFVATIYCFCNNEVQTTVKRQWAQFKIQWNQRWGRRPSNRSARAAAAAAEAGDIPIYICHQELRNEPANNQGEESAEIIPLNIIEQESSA
# Target: T1, human calcitonin receptor
# Assay: cell-based or functional assay
row,hCTR funct. EC50,Binder
1,0.327 nM,"{C20 diacid-γGlu}-KCNTATCATQRLAEFLRHSSPNFGAIPSSTNVGPNTY-NH2 (disulfide 2-7; SMILES CC[C@H](C)[C@H](NC(=O)[C@H](C)NC(=O)CNC(=O)[C@H](Cc1ccccc1)NC(=O)[C@H](CC(N)=O)NC(=O)[C@@H]1CCCN1C(=O)[C@H](CO)NC(=O)[C@H](CO)NC(=O)[C@H](Cc1c[nH]cn1)NC(=O)[C@H](CCCNC(=N)N)NC(=O)[C@H](CC(C)C)NC(=O)[C@H](Cc1ccccc1)NC(=O)[C@H](CCC(=O)O)NC(=O)[C@H](C)NC(=O)[C@H](CC(C)C)NC(=O)[C@H](CCCNC(=N)N)NC(=O)[C@H](CCC(N)=O)NC(=O)[C@@H](NC(=O)[C@H](C)NC(=O)[C@@H]1CSSC[C@H](NC(=O)[C@H](CCCCN)NC(=O)CC[C@H](NC(=O)CCCCCCCCCCCCCCCCCCC(=O)O)C(=O)O)C(=O)N[C@@H](CC(N)=O)C(=O)N[C@@H]([C@@H](C)O)C(=O)N[C@@H](C)C(=O)N[C@@H]([C@@H](C)O)C(=O)N1)[C@@H](C)O)C(=O)N1CCC[C@H]1C(=O)N[C@@H](CO)C(=O)N[C@@H](CO)C(=O)N[C@H](C(=O)N[C@@H](CC(N)=O)C(=O)N[C@H](C(=O)NCC(=O)N1CCC[C@H]1C(=O)N[C@@H](CC(N)=O)C(=O)N[C@H](C(=O)N[C@@H](Cc1ccc(O)cc1)C(N)=O)[C@@H](C)O)C(C)C)[C@@H](C)O, h-amylin derivative; disulfide bridge and C-terminal amide as told for human amylin; also called compound 32)"
2,1.68 nM,"{C20 diacid-γGlu}-KCNTATCATQRLAHFLRHSSPNFGAIPSSTNVGSETY-NH2 (disulfide 2-7; SMILES CC[C@H](C)[C@H](NC(=O)[C@H](C)NC(=O)CNC(=O)[C@H](Cc1ccccc1)NC(=O)[C@H](CC(N)=O)NC(=O)[C@@H]1CCCN1C(=O)[C@H](CO)NC(=O)[C@H](CO)NC(=O)[C@H](Cc1c[nH]cn1)NC(=O)[C@H](CCCNC(=N)N)NC(=O)[C@H](CC(C)C)NC(=O)[C@H](Cc1ccccc1)NC(=O)[C@H](Cc1c[nH]cn1)NC(=O)[C@H](C)NC(=O)[C@H](CC(C)C)NC(=O)[C@H](CCCNC(=N)N)NC(=O)[C@H](CCC(N)=O)NC(=O)[C@@H](NC(=O)[C@H](C)NC(=O)[C@@H]1CSSC[C@H](NC(=O)[C@H](CCCCN)NC(=O)CC[C@H](NC(=O)CCCCCCCCCCCCCCCCCCC(=O)O)C(=O)O)C(=O)N[C@@H](CC(N)=O)C(=O)N[C@@H]([C@@H](C)O)C(=O)N[C@@H](C)C(=O)N[C@@H]([C@@H](C)O)C(=O)N1)[C@@H](C)O)C(=O)N1CCC[C@H]1C(=O)N[C@@H](CO)C(=O)N[C@@H](CO)C(=O)N[C@H](C(=O)N[C@@H](CC(N)=O)C(=O)N[C@H](C(=O)NCC(=O)N[C@@H](CO)C(=O)N[C@@H](CCC(=O)O)C(=O)N[C@H](C(=O)N[C@@H](Cc1ccc(O)cc1)C(N)=O)[C@@H](C)O)C(C)C)[C@@H](C)O, h-amylin derivative; disulfide bridge and C-terminal amide as told for human amylin; also called compound 30)"
3,6.34 nM,"K([AEEA-γGlu-C20 diacid])CNTATCATQRLANFLRHSSPNFGAIPSSTNVGSETY-NH2 (disulfide 2-7; N-terminus assumed; SMILES CC[C@H](C)[C@H](NC(=O)[C@H](C)NC(=O)CNC(=O)[C@H](Cc1ccccc1)NC(=O)[C@H](CC(N)=O)NC(=O)[C@@H]1CCCN1C(=O)[C@H](CO)NC(=O)[C@H](CO)NC(=O)[C@H](Cc1c[nH]cn1)NC(=O)[C@H](CCCNC(=N)N)NC(=O)[C@H](CC(C)C)NC(=O)[C@H](Cc1ccccc1)NC(=O)[C@H](CC(N)=O)NC(=O)[C@H](C)NC(=O)[C@H](CC(C)C)NC(=O)[C@H](CCCNC(=N)N)NC(=O)[C@H](CCC(N)=O)NC(=O)[C@@H](NC(=O)[C@H](C)NC(=O)[C@@H]1CSSC[C@H](NC(=O)[C@@H](N)CCCCNC(=O)COCCOCCNC(=O)CC[C@H](NC(=O)CCCCCCCCCCCCCCCCCCC(=O)O)C(=O)O)C(=O)N[C@@H](CC(N)=O)C(=O)N[C@@H]([C@@H](C)O)C(=O)N[C@@H](C)C(=O)N[C@@H]([C@@H](C)O)C(=O)N1)[C@@H](C)O)C(=O)N1CCC[C@H]1C(=O)N[C@@H](CO)C(=O)N[C@@H](CO)C(=O)N[C@H](C(=O)N[C@@H](CC(N)=O)C(=O)N[C@H](C(=O)NCC(=O)N[C@@H](CO)C(=O)N[C@@H](CCC(=O)O)C(=O)N[C@H](C(=O)N[C@@H](Cc1ccc(O)cc1)C(N)=O)[C@@H](C)O)C(C)C)[C@@H](C)O, h-amylin derivative; disulfide bridge and C-terminal amide as told for human amylin; also called compound 26)"
4,2.39 nM,"K([AEEA-γGlu-C20 diacid])CNTATCATQRLANFLRHSSPNFGAIPSSTPVGSNTY-NH2 (disulfide 2-7; N-terminus assumed; SMILES CC[C@H](C)[C@H](NC(=O)[C@H](C)NC(=O)CNC(=O)[C@H](Cc1ccccc1)NC(=O)[C@H](CC(N)=O)NC(=O)[C@@H]1CCCN1C(=O)[C@H](CO)NC(=O)[C@H](CO)NC(=O)[C@H](Cc1c[nH]cn1)NC(=O)[C@H](CCCNC(=N)N)NC(=O)[C@H](CC(C)C)NC(=O)[C@H](Cc1ccccc1)NC(=O)[C@H](CC(N)=O)NC(=O)[C@H](C)NC(=O)[C@H](CC(C)C)NC(=O)[C@H](CCCNC(=N)N)NC(=O)[C@H](CCC(N)=O)NC(=O)[C@@H](NC(=O)[C@H](C)NC(=O)[C@@H]1CSSC[C@H](NC(=O)[C@@H](N)CCCCNC(=O)COCCOCCNC(=O)CC[C@H](NC(=O)CCCCCCCCCCCCCCCCCCC(=O)O)C(=O)O)C(=O)N[C@@H](CC(N)=O)C(=O)N[C@@H]([C@@H](C)O)C(=O)N[C@@H](C)C(=O)N[C@@H]([C@@H](C)O)C(=O)N1)[C@@H](C)O)C(=O)N1CCC[C@H]1C(=O)N[C@@H](CO)C(=O)N[C@@H](CO)C(=O)N[C@H](C(=O)N1CCC[C@H]1C(=O)N[C@H](C(=O)NCC(=O)N[C@@H](CO)C(=O)N[C@@H](CC(N)=O)C(=O)N[C@H](C(=O)N[C@@H](Cc1ccc(O)cc1)C(N)=O)[C@@H](C)O)C(C)C)[C@@H](C)O, h-amylin derivative; disulfide bridge and C-terminal amide as told for human amylin; also called compound 49)"
5,10 nM,"K([AEEA-AEEA-γGlu-C20 diacid])CNTATCATQRLANFLRHSSPNFGAIPSSTNVGSETY-NH2 (disulfide 2-7; N-terminus assumed; SMILES CC[C@H](C)[C@H](NC(=O)[C@H](C)NC(=O)CNC(=O)[C@H](Cc1ccccc1)NC(=O)[C@H](CC(N)=O)NC(=O)[C@@H]1CCCN1C(=O)[C@H](CO)NC(=O)[C@H](CO)NC(=O)[C@H](Cc1c[nH]cn1)NC(=O)[C@H](CCCNC(=N)N)NC(=O)[C@H](CC(C)C)NC(=O)[C@H](Cc1ccccc1)NC(=O)[C@H](CC(N)=O)NC(=O)[C@H](C)NC(=O)[C@H](CC(C)C)NC(=O)[C@H](CCCNC(=N)N)NC(=O)[C@H](CCC(N)=O)NC(=O)[C@@H](NC(=O)[C@H](C)NC(=O)[C@@H]1CSSC[C@H](NC(=O)[C@@H](N)CCCCNC(=O)COCCOCCNC(=O)COCCOCCNC(=O)CC[C@H](NC(=O)CCCCCCCCCCCCCCCCCCC(=O)O)C(=O)O)C(=O)N[C@@H](CC(N)=O)C(=O)N[C@@H]([C@@H](C)O)C(=O)N[C@@H](C)C(=O)N[C@@H]([C@@H](C)O)C(=O)N1)[C@@H](C)O)C(=O)N1CCC[C@H]1C(=O)N[C@@H](CO)C(=O)N[C@@H](CO)C(=O)N[C@H](C(=O)N[C@@H](CC(N)=O)C(=O)N[C@H](C(=O)NCC(=O)N[C@@H](CO)C(=O)N[C@@H](CCC(=O)O)C(=O)N[C@H](C(=O)N[C@@H](Cc1ccc(O)cc1)C(N)=O)[C@@H](C)O)C(C)C)[C@@H](C)O, h-amylin derivative; disulfide bridge and C-terminal amide as told for human amylin; also called compound 25)"
